From article PMC3383726

Molecular target: chimera of the human sst5 receptor with the carboxyl-terminal tail of the human sst2 receptor (hsst5-sst2CT) (human)
Experiment: radioligand binding; competition against 0.05 nM [125I-Tyr11]-SS-14 on membrane preparations (30 µg protein) of stably transfected HEK293 cells; competitor 10^-12 to 10^-6 M; 10 mM HEPES, 5 mM MgCl2, 5 µg/ml bacitracin, pH 7.5; 45 min, room temperature; vacuum filtration

## Somatostatin (SS-14) (from UniProt P61278 103-116) (peptide)
  IC50: 30.3 nM
